Measured values: patent EP4700046A1
Where a chain is given by its changes, count along the chain named.

B1: IgG_18 (antibody, part only; not given: VL CDR2; constant regions, V domains shown, part only)
VH: EVQLLESGGGLVQPGGSLRLSCAASGFTFSNYAMSWVRQAPGKGLEWVSSISPSGSSKYYADSVKGRFTISRDNSKNTLYLQMNSLRAEDTAVYYCAKHNRHFDYWGQGTLVTVSS
VL, part: QSVLTQPPSASGTPGQRVTISCTGSSSNIGSHYVSWYQQLPGTAPKLLIYHRPSGVPDRFSGSKSGTSASLAISGLRSEDEADYYCGSWDDSLNAYVFGGGTKLTVL
B2: IgG_54 (antibody, part only; not given: VL CDR2; constant regions, V domains shown, part only)
VH: EVQLLESGEGLVQPGGSLRLSCAASGFTFSNYSMSWVRQAPGKGLEWVSGISSGGGSKYYADSVKGRFTISRDNSKNTLYLQMNSLRAEDTAVYYCARQATAFDYWGQGTLVTVSS
VL, part: B1 VL, part with S31N, H32N, Y33S, S35T, H51N, S88T, N94S, G99C
B3: IgG_56 (antibody, part only; not given: VL CDR2; constant regions, V domains shown, part only)
VH: EVQLLESGGGLVQPGGSLRLSCAASGFTFSGYPMSWVRQAPGKGLEWVSSISSSGGNTYYADSVKGRFTISRDNSKNTLYLQMNSLRAEDTAVYYCARFGIHHPDRALYYANAMDVWGQGTLVTVSS
VL, part: B1 VL, part with T23S, S31N, H32N, Y33D, S35N, H51Q, G87A, S88T, D91A, N94S

target: 6xHis-SUMO-CXCR2(NTD) (human) (UniProt P25025); test: BLI (Octet R4), His-tagged SUMO-CXCR2(NTD) on HIS1K biosensor, IgG as analyte, 1:1 model
Sequence of UniProt P25025 (P25025 1-48): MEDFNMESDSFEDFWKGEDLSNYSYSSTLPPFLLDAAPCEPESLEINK

Binder | Kd
B1 | 8.9 nM
B2 | 250 nM
B3 | 5.6 nM
